Measured values published in the nanobody polyreactivity screen of Harvey et al. (2022).

Test: yeast display, Sf9 membrane polyspecificity reagent, FACS + sequencing; frameworks hold sequencing errors
Summary of the method: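 Polyreactivity labels are assigned by the sorting gate from which each nanobody was recovered. The gates were low and high (top ~1%), set on anti-HA fluorescence for expression and streptavidin fluorescence for reagent binding. Before sorting, galactose-induced (36–48 hours) yeast display cells were stained for 1 hour at 4 °C with 10% biotinylated, detergent-solubilized Sf9 membrane reagent.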

| Sequence | polyreactivity (PSR sort gate) |
| --- | --- |
| QVQLVESGGGLVQAGGSLRLSCAASGFTFRYYAMGCYRPAPGKERELVAAISSRGGTTYYADSVKGRFTISRDNAKNTVYLQMNSLKPEDTAVYYCAATYAYGRYYGYVYLGDYWGQGTQVTVSS | high polyreactivity |
| QVQLVESGGGLVQAGGSLRLSCAASGRIFTRYAMGSYRQAPGKETEFVAAISGNGGSTYADSVKGRFTISRDNAKNTVYLQMNSLKPEDTAVYYCAAVPYGYGLASDSIFDYWGQGTQVTVSS | high polyreactivity |
| QVQLVESGGGLVQAGGSLRLSCAASGFIIIGYVMGWYRQAPGKERELVAAITSSGGSTYYEDSVKGRFTISRDNAKNTVYLQMNSLKPEDTAVYYCAAEYYLLWSGMEYWGQGTQVTVSS | low polyreactivity |
| QVQLVESGGGLVQAGGSLSLSCAASGSTFKRYAMGWYRQAPGKERDLVASISSGGSTNYADSVKGRFTISRDNAKNTVNLQMNSLKPEETAVYYCAVSYRSFRYYWERYYSWGQGTQVTVSS | high polyreactivity |
| QVQLVESGGGLVQAGGSLRLSCAASGRTFARNPMGWYRHAPGKERELVASIRWRGGSTYYADSVKGRFTISRDNAKNTVYLQMNRLKPEDTAVYYCATRYPYYVGRGYISYDYWGQGTQVTVSS | high polyreactivity |
| QVQLGESGGGLVQAGGSLRLSCAASGSIFRGYTMGWYRQAPGKERELVAGISFSGTRTYYADSVKGRFTISRDNAKNTVYLQMNSLKPEDTAVYYCAAVSPYGSQYGYWGQGTQVTVSS | high polyreactivity |
| QFQLVESVGGLVQAGGSLRLSCAASGRTFGNYAMGWYRQAPGKERELVAAISRSGGSTSYADSVKGRFTISRDNAKNTVYLQMNSLKPVDTAVYYCNAYFRGPRDYQYDYWGQGTQVTVSS | high polyreactivity |
| QVQLVESGGGLVEAGGSLRLICAAAGSNFSYYAMGWYRQAPGKERELVAAISWNGGRTYYADSVKGRFTISRDNAKYSVYLQMNSLKPEDTAVYYCAARSSYKFYYWGQRTQVTVSS | high polyreactivity |
| QVQLVESGGGLVQAGGSLRLSCAASGSIFHLYAMGWYRQATGKERELVAAISWSGGSTYYADSVKGRFTISRDNAKNTVYLQMNSLKPEDTAVYYCAAEYYYQFYDYPYGYEYWGQGTQVTVSS | high polyreactivity |
| QVQLVESGGGLVQAGGSLRLSCAASGFIFGFYAMGGYRQAPGKERELVAAISWSGGSTYYADSVKGRFTISRDNAKNTVYLQMNSLKPEDTAVYYCAAYFYYLDDAVTYDYWGQGTQVTVSS | low polyreactivity |
| QVQLVESGGGLVQAGGSLRLSCAASGNTFSPYVMGWYRQAPGKERELVAAISKGGGSTYYADSVKGRFTISRDNAKNTVYLQMNSLKPEDTAVYYCAASAGPRASYYYWGQGTQVTVSS | high polyreactivity |
| QVQLVESGGGLVQAGGSLRLSCAASGRIFSVYAMGWYRQAPGKERELVAAITWTGGRTYYADSVKGRFTISRDNAKNTVYLQMNSLKPEDTAVYYCNKDWGRYRYDYWGQGTQVTVSS | high polyreactivity |
| QVQLVESGGGLVQAGGSLRLSCAASGRTFYYYGMGWYRQAPGKERELVAAINRGDSTKYADSVKGRFTISRDNAKNTVYLQMNSLKPEDTAVYYCNARLRASFARFIYEYWGQGTQVTVSS | low polyreactivity |
| QVQLVESGGGLVQAGGSLRLTCAASGSILDYYVMGWYRQAPAKEREMVAAIRGGGSTYYADSVKGRFTISRDNAKNTVYLQMNSLKPEDTAVYYCAKDSQTARDFDYWGQGSQVTVSS | low polyreactivity |
| QVQLVESGGRLVEAGGSLRISWAASGLIFGYNAMGWYRQAPGKERELVAAISGSGGRTYYADSVKGRFTISRDNAKNTVYLQMNSLKPEDTAVFYCAVADRRGLGYWGQGTQVTVSS | high polyreactivity |
| QVQLVESGAGLVQAGGILRLSCAASGSTFIYNAMGWYIQAPGKERELVAAISARTGNTYYADSVKGRFTISRDNAKNTVYLQMNSLKPEDTAVYYCARRGFRRGGGPSRYYWYDYWGQGTQVTVSS | high polyreactivity |
| QVQLVESGGGLVQAGGSLRLSCAASGGTFRRYAMGWYRQAPGKEREFVAAITISGGNTYYADSVKGRFTISRDNAKNTVYLQMNSLKPEDTAVYYCAKDHIRKQPEGRRMDYWGQGTQVTVSS | low polyreactivity |
| QVQLVESGGGLVQAGGSLRLSCAASGSTFTSYAMGWYRQAPGKERELVAGITSRGTSTYYADSVKGRFTISRDNAKNTVYLQMNSLKPEDTAVYYCARDPYQPKVSGRLFLRYDYWGQGTQVTVSS | high polyreactivity |
| QVQIVESGGGLVQAGGSLRLSCAASGITFRFYALGWYRQATGKERELVAAISWSGGSTNYADSVKGRFTISRDNAKNTVYLQMNSLKPEDTAVYYCNVVGKYYSGGTYEYWGQGTQVTVSS | high polyreactivity |
| QVQLVESGGGLVQAGGSLRLSCAASGRIFYRYAMGWYRQAPGKERELVAAISSGSSTNYADSVKGRFTISRDNAKNTVYLQMNSLKPEDTAVYYCNAERYGKSWRYCYWGQGTQVTVSS | high polyreactivity |
| QVHLVESVGGLVQAGGSLRLSCAASGRTFGGYAMGWYRQAHGKERELVAAIRRSGGSTYYADSVKGRFTISRDNAKNTVYLQMNSVKPEDTAVYYCAASGIYNVRMYYWGQGTLVTVSS | high polyreactivity |
| QVQLVESGGGLVQAGGSLRLICAASGRTFDLYAMGWCRQAPGKEREFVAAITKGGGSTYYADSVKGRFTISRDNAKNTVYLQMNSLKPEDTAVYYCAARKYKRIYRISSGIGYYWGQGTQVTVSS | high polyreactivity |

| Sequence | polyreactivity (PSR sort gate) |
| --- | --- |
| QVQLVESGGGLVQAGGSLRLSCAASGSTSSDYAMGWYRQPPGKERELVASISRSGGSTNYADSVKGRFTISRDNAKNTVYLQMNSLKPEDTAVYYCAARQSYRYYWGKGTQVTVSS | high polyreactivity |
| QVQLVESGGGLVQAGGSLRLSCAASGSTFRGNAMGWYRQAPGKERELVAAITRRGGSTYYADSVKGRFTISRDNAKNTVYLQMNRLKPEDTAVYYCAADWGNDWWGLFWGDYWGQGTQVTVSS | high polyreactivity |
| QVQLVESGGGLVQAGGSLRLSCAAAARTFPYNAMGWYRQAPGQERELVATISRRTGTTYYADSVKGRFTISRDNAKNTVYLQMNSLKPEDTAVYFCAATGFGLRRLFRGDYWGQGTQVTVSS | high polyreactivity |
| QVQLVESGGGLFQAGGSLRLSCAASGITFERYTMGWYRQAPGKERELVAAIRGSGGTYYADSVKGRFTISRENAKNTVYLQMNSLKPEDTAVYYCNAVLWVYYHWPYDYWGQGTQVTVSS | high polyreactivity |
| QVQLVESGGGLVQAGGSLRLSCAASGSNFYPYAMGWYRQAPGKERELVAGITGGGRTYYADSVKGRFTISRDNAKNTVYLQMNSLKPEDTAVYYCAAVDYVSYYIPFHYEYYWGQGTQVTVSS | low polyreactivity |
| QVQLVESGGGLVQGGSLRLSCAATGFTFPIYVMAWYRQAPGKERQLVDSISSVGSTNYADSVKGRFTISRDNAKNTVYLQMNSMKPEDTAVYYCNADAPNSYGGFDYWGQGTQVTVSS | low polyreactivity |
| QVQLVESGGGLFQAGGSLRLTCAASGRIFTHYSMGWYRQPPGKEREFVAAISRSGARTYYADSVKGRFTISRDYAKNTVYLQMYSLKREVTSVYYCAKDQVDSPRDRYQKLDFWGQGTQVTVSS | low polyreactivity |
| QVQLVESGGGLVQAGGSLRLSCAASGSTFTRNTMGWYKQAPGKEREMVAAISRRGGRTDYADSVKGRFTISRDNAKNSVYLQMNSLKPEDTAVYYCAADPITVDQNPRYGYWGQGTQVTVSS | high polyreactivity |
| QVQLQESGGGLVQAGGSQRLSCAASGYIFYFQYMGWYRQAPGKEREFVAAISDGANTNYADSVKGRFTISRDNAKNTEYLQMNSLKPEDTAVYFCAVYADENYYFIYWGQGTQVTVSS | low polyreactivity |
| QVQLVESGGGLVQAGGSLRLSCAASGLIFNKYAMGWYRQAPGKERELVATIRRDGSTNYADSVKGRFTISRDNAKITVYLQLNILKPEDTAVYYCAADSYYTRDDYWGQGTQVTVSS | high polyreactivity |
| QVQLVESGGGLVQAGGSLRLSCAASGRTIDHYAMGWYRQAPGKERELVAAISTTGGSTYYADSVKGRFTISRDNAKNTVYLQMNSLKPEYTAVYYCAARGLRTGGYWGQGTQVTVSS | high polyreactivity |
| QVQLVESGVGLVQAGGSLRLSCAASGRTFWSYAMGLYRQAPGKERELVAAISRGGSRTYYADSVKGRFTISRDNAKNTVYLQMNSLKPEDTAVYYCAADPTASGHFLGQVDYWGQGTQVTVSS | high polyreactivity |
| QVHLVESGGGLVQAGGSLRLSCAATGYIFDSYAMGWYRPAPGKEREFVAAISGSDGSTYYADSVKGRFTISRDNAKNTVYLQMNSLKPEDTAVYYCAADPYYGEMEYWGQGTQVTVSS | low polyreactivity |
| QVQLVESGGGLVQARGSLRLSCAASGSIFYNNALGWYRQAPGKERELVAAISGSGDSTYYADSVKGRFTISRENAKNTVYLQMNSLKPEDTAVYYCNATPYVLWWSDMDYWGQGTQVTVSS | high polyreactivity |
| QVQLVESGGGLVQAGGSLRLSCAASGSIQTRNAMGWYRQAPGKERELVAAITGSGGRTYYADSVKGRFTISRDNAKNTVYLQMNSLKPEDTAVYYCATRYGREDYWGQVTQVTVSS | high polyreactivity |
| QVQLVESGAGLVQAGGSLRLSCAASGLTFEWYAMGWYRPAPGKERELVAAISWNGGSTYYADSVKGRFTISRDNAKNTVYLQMNSLKPEDTAVYYCATSSPRRYYWGQGTQVTVSS | high polyreactivity |
| QVQLVESGGGIVQAGGSLRLSCASSGFTLGLYAMGWYRQAPGKERELVAVISGRGSRTYYADSVKGRFTISRDNAKNTVYLQMNSLKPEDTAVYYCAASYRTYYRTGYDYWGQGTQVTVSS | high polyreactivity |
| QVQLVESGGGLVQAGGSLRLSCAASGSTLQDNAMGWYRQAPGKDRELVAAITTGSTTYADSVKGRFTISRDNAKNTVYIQMNSLKPEDTAVYYCAADSEEYDGYTWWVFKFDYWGQGTQVTVSS | low polyreactivity |
| QVQLVESGGGLVQAGGSLRLSCAASGRTFRRYAMGWYRQAPGKERELVAAITRGGSTNYADSVKGRFTISRDNAKDTVYLQMNSLKPEDTAVYYCAKDPLATFYGYWGQGTQVTVSS | high polyreactivity |
| QVHLVESGGGLVQAGGSLRLSCAASGTIFGEYAMGWYRQAPGKERELVARISVSGTGTYYADSVKGRFTISRVNAKNTVYLQMNSLKPEDTAVYYSATRLYTIRWGGVSYDYDYWGQGTQVTVSS | high polyreactivity |
| QVQLVESGGGLVQAGGSLRLSCAASGSTFSYYAMGWYRQAPGKERELVARISWRGGSTYYADSVKGRFTISRDNAKNTVYLQMNSLKPEDTAVYYCAARRSGTYYGTYKSNGRNYWGQGTQVTVSS | high polyreactivity |
